Results published in PMC3364950, “Structure and Functional Analysis of the RNA- and Viral Phosphoprotein-Binding Domain of Respiratory Syncytial Virus M2-1 Protein”.

Key:
[1] = target: T1, M2-1(58-177) core domain (human respiratory syncytial virus (hRSV, strain Long per Fig S7)) (UniProt P04545); test: NMR titration; conditions: NMR: 50-60 µM protein, 293 K, 14.1 T, 1:1 model, buffer/salt/pH not in material; EMSA: 100 µM GST fusion eluted with GSH, ~50 µM tRNA, 1 h room temperature …
T1 sequence: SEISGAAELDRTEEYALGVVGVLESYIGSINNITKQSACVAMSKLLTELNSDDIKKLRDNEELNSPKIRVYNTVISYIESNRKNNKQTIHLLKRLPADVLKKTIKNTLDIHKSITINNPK

[2] = target: RSV phosphoprotein P, full-length (P_(1–241)) (UniProt P12579); test: GST pull-down; conditions: parent: est. 100; read off a plot
[3] = target: RSV phosphoprotein P, full-length (P_(1–241)) (human respiratory syncytial virus (strain Long)) (UniProt P12579); test: ITC; M2-1_(58–177) (335 µM, 20 injections of 2 µL) injected into P (33 µM) in the cell; 1× PBS; 20°C
[4] = target: GST-M2-1 L148A (full-length) (human respiratory syncytial virus (strain Long)); test: pull-down; ~25 µM GST-M2-1 (or GST) on Glutathione-Sepharose 4B beads in PBS with a 3-fold molar excess of purified P, 1 h at 20°C; washed with PBS; SDS-PAGE, Coomassie blue, bands quantified with ImageJ
[5] = target: GST-M2-1 T130D (full-length) (human respiratory syncytial virus (strain Long)); test: as above
[6] = target: GST-M2-1 R126D (full-length) (human respiratory syncytial virus (strain Long)); test: as above
[7] = target: GST-M2-1 N163D (full-length) (human respiratory syncytial virus (strain Long)); test: as above
[8] = target: GST-M2-1 T160D (full-length) (human respiratory syncytial virus (strain Long)); test: as above
M2-1(58-177) core domain = target: T2, M2-1(58-177) core domain (human respiratory syncytial virus …, UniProt P04545 58-177); test: NMR titration; NMR: 50-60 µM protein, 293 K, 14.1 T, 1:1 model, buffer/salt/pH not in material; EMSA: 100 µM GST fusion eluted with GSH, ~50 µM tRNA, 1 h room temperature, 1.5% agarose, 1x Tris-Glycine, 4°C; conditions: protein: recombinant, tags: N-terminal Gly-Ser left after thrombin cleavage of GST
T2 sequence: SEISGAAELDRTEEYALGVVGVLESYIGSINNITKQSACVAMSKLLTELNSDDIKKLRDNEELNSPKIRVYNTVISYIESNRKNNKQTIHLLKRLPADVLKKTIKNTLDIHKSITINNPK

[9] = predicted hairpin, poly-U loop, 2-3 bp stem

AGUUAUAUAAAA / UUUUAUAUAACU [GE_F-ds]
Kd [1]: 4.5 µM

GST-M2-1 (full-length M2-1 fused to GST), WT K92D
percent of parent [2]: 54 % WT

GST-M2-1 (full-length M2-1 fused to GST), WT K150D
percent of parent [2]: 63 % WT

GST-M2-1 (full-length M2-1 fused to GST), WT R151D
percent of parent [2]: 44 % WT

RSV M2-1_(58–177) core domain (domain or fragment)
Kd [3]: 3 µM | stoichiometry N [3]: 1

RSV phosphoprotein P, full-length (P_(1–241)) (from UniProt P12579 1-241) (natural protein)
decrease in P binding against WT [4]: > 50% | decrease in P binding against WT [5]: > 50% | decrease in P binding against WT [6]: > 50% | decrease in P binding against WT [7]: > 50% | decrease in P binding against WT [8]: > 50%

UAUUUGCCCC (ssRNA) [GS-neg]
Kd (M2-1(58-177) core domain): 110 ± 15 µM

CCCAUUUUUUUGGUU (ssRNA) [long U-rich]
Kd (M2-1(58-177) core domain; [9]): 125 ± 35 µM

ACGCGAAAAAAU (ssRNA) [leader-pos]
Kd (M2-1(58-177) core domain; partial self-association (two G-C and U-A pairs) seen by NMR): 2.5 ± 1.5 µM

UUUUUAAUUAACU (ssRNA) [GE_SH-neg]
Kd (M2-1(58-177) core domain): 75 ± 15 µM

GCGCUUUUUUAAGCGC (structured_RNA) [UGA2]
Kd (M2-1(58-177) core domain; hairpin, 5 bp, U-stretch): 60 ± 10 µM

TTTTATATAACT (ssDNA) [GE_F-DNA]
Kd (M2-1(58-177) core domain): 250 ± 70 µM

CGCAUUUUUUCGCGU (ssRNA) [leader-neg]
Kd (M2-1(58-177) core domain; [9]): 75 ± 15 µM

UUUUAUAUAACU (ssRNA) [GE_F-neg]
Kd (M2-1(58-177) core domain): 85 ± 25 µM

CCAAAAAAAU (ssRNA) [short A-rich (short polyA)]
Kd (M2-1(58-177) core domain): 22 ± 6 µM
